Assay results published in patent publication US20230340152A1 (published 2023).
Numbering of substitutions follows the chain as printed. In names and notes the source's numbering stands.

T1: Cynomolgus CD73 ECD (cynomolgus, UniProt A0A2K5V5U7 27-549)
T1 construct: extracellular domain; also called cyno CD73
T1 sequence: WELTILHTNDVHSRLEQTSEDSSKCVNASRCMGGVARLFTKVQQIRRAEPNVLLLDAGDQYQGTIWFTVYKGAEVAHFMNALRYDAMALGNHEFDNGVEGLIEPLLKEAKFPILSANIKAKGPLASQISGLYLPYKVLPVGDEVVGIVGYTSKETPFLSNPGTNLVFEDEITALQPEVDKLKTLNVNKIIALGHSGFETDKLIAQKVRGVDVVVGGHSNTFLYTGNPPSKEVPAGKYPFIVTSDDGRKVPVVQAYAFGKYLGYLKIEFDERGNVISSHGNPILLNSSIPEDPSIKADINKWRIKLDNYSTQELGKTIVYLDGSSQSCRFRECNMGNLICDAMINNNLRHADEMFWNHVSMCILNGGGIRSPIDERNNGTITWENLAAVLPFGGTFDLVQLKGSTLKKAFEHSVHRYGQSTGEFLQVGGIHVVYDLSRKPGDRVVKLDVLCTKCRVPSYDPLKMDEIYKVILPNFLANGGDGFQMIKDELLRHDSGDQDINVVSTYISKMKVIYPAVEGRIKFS

T2: Human CD73 ECD (human, UniProt P21589 27-549)
T2 construct: Biotinylated in some assays; also called human CD73 extracellular domain; huCD73
T2 sequence: T1 sequence with T199M, A350T, I466V

T3: Murine CD73 ECD (murine, UniProt Q61503 29-551, limits assumed)
T3 construct: extracellular domain; In-house recombinant ECD; also called murine CD73 extracellular domain; muCD73
T3 sequence (looked up): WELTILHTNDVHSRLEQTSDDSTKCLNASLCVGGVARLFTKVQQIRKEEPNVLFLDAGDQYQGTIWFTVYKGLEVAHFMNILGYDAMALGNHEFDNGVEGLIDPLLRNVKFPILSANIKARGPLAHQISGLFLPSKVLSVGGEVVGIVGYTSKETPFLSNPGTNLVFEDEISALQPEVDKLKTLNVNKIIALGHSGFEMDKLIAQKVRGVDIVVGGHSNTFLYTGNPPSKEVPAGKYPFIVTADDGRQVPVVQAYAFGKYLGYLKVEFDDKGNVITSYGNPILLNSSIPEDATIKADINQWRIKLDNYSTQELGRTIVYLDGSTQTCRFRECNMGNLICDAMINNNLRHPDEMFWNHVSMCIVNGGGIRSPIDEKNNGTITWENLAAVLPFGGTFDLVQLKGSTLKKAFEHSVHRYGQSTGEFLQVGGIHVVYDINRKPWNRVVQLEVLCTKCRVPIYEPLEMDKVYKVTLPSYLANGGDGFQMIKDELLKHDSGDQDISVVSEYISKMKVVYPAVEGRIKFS

T4: Human CD73 on cells (MDA-MB-231, Jurkat CD73 knock-in, NCI-H322) (human, UniProt P21589 27-549)
T4 sequence: T1 sequence with T199M, A350T, I466V

T5: Murine CD73 on cells (4T1, Jurkat mCD73 knock-in) (murine, UniProt Q61503 29-551)
T5 construct: whole, on cells; also called 4T1 (murine)
T5 sequence (looked up): T3 sequence (looked up)

B1: CD730010 (antibody, V domains shown)
VH: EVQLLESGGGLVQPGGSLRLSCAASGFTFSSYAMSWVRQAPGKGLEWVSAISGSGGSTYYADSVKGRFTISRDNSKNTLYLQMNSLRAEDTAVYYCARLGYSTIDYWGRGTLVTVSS
VL: LPVLTQPPSVSGTPGQRVTISCSGSLSNIGRNPVNWYKQVPGTAPKLLIYLNNQRPSGVPDRFSGSKSGTSASLAISGLQSEDEADYYCATWDDSLNGWLFGGGTKLTVL
notes: IgG1-TM format (L234F, L235E, P331S); also called CD730010 antibody; clone 10
B2: CD730002 SGMY (antibody, IgG1, V domains shown)
VH: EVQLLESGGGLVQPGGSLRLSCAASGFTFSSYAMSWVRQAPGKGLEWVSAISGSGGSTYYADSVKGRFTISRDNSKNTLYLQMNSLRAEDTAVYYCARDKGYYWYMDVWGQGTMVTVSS
VL: QSVLTQPPSVSVSPGQTASITCSGDKVGDKYASWYQQKPGQSPVLVIYEDTKRPSGIPERFSGSNSGNTATLTISGTQAMDEADYYCQAWDTSFWVFGGGTKLTVL
notes: IgG1-TM; non-germlined VH, fully germlined VL (S20, G57, M81, Y87); also called Clone 2 SGMY

Experiments:
[1] = molecular target: CD73 (species and format not stated); assay: binding assay not stated
[2] = molecular target: T1, Cynomolgus CD73 ECD; assay: binding assay, format not stated
[3] = molecular target: T2, Human CD73 ECD; assay: binding assay, format not stated
[4] = molecular target: T3, Murine CD73 ECD; assay: binding assay, format not stated
[5] = molecular target: T1, Cynomolgus CD73 ECD; assay: SPR (Proteon)
[6] = molecular target: T2, Human CD73 ECD; assay: SPR (Proteon)
[7] = molecular target: T3, Murine CD73 ECD; assay: SPR (Proteon)
[8] = molecular target: T2, Human CD73 ECD; assay: cell-based or functional assay
[9] = molecular target: T4, Human CD73 on cells (MDA-MB-231, Jurkat …); assay: cell-based or functional assay
[10] = molecular target: T5, Murine CD73 on cells (4T1, Jurkat mCD73 …); assay: flow cytometry on cells
[11] = molecular target: T4, Human CD73 on cells (MDA-MB-231, Jurkat …); assay: flow cytometry on cells
[12] = molecular target: T2, Human CD73 ECD; assay: binding to recombinant human CD73 by flow cytometry, IgG1-TM
[13] = molecular target: T3, Murine CD73 ECD; assay: binding to recombinant murine CD73 by flow cytometry, IgG1-TM

| Binder | EC50 [1] [nM] | 1/EC50 [2] [nM⁻¹] | 1/EC50 [3] [nM⁻¹] | 1/EC50 [4] [nM⁻¹] | Kd [5] [nM] | Kd [6] [nM] | Kd [7] [nM] | Enzyme Inhibition, rCD73, 1/EC50 (nM) [8] [nM⁻¹] | Enzyme Inhibition, MDA-MB-231, 1/EC50 (nM) [9] [nM⁻¹] | Internalization, MDA-MB-231, 1/EC50 (nM) [9] [nM⁻¹] | Kd [10] [nM] | Kd [11] [nM] | binding result [12] | binding result [13] |
| --- | --- | --- | --- | --- | --- | --- | --- | --- | --- | --- | --- | --- | --- | --- |
| B1 | 69 | 0.0033 | 0.0034 | 0.0024 | 1.92 | 3.58 | 2.47 | 0.0062 | 0.33 | 0.0062 | 6.1 | 8 | – | – |
| B2 | – | – | – | – | – | – | – | – | – | – | – | – | binds | binds |
